In patent publication EP4782837A1 one finds fold increase of Cetux-probe fluorescence on enzyme treatment (37°C, 1 hour) data, which are given here for two substances.

The target of this assay is Cetux-probe (cetuximab conjugated with the C-probe). Description: cell-based or functional assay.

cathepsin B (enzyme) showed a fold increase of Cetux-probe fluorescence on enzyme treatment (37°C, 1 hour) of 24 fold.

Take “papain (from UniProt P00784 134-345) (enzyme)”: the fold increase of Cetux-probe fluorescence on enzyme treatment (37°C, 1 hour) was found to be 13.5 fold.
